Laboratory results as given in patent US20160347850A1 (AbbVie / Abbott, published 2016).
Numbering of substitutions follows the chain as printed. Names may count otherwise. Where two headings read alike, the source gives them in different places. One block for each molecule: values may come before it.

What was measured:
[1] = target: T1, Human CD40 (human, UniProt P25942 21-277); assay: cell-based or functional assay
[2] = target: T1, Human CD40; assay: cell-based or functional assay; remark: listed apart in the source
[3] = target: T2, cyno CD40 (cynomolgus monkey, UniProt G7PG38 21-278); assay: FACS on HEK cells expressing cyno CD40
T2 construct: whole, on cells; also called cyCD40; cynomolgus monkey CD40

[4] = target: T1, Human CD40; assay: FACS blocking of sCD40L binding to CD40 expressing HEK cells
Experimental: FACS analysis was also used to determine whether the three chimeric antibodies could inhibit binding of soluble CD40 ligand (sCD40L) to CD40. Using CD40 expressing HEK cells, IC50 values were measured. As described in Table 10, each of the chimeric antibodies was able to block CD40 binding to its ligand.

[5] = target: T1, Human CD40; assay: cell-based or functional assay; remark: listed apart in the source
[6] = target: T1, Human CD40; assay: cell-based or functional assay; remark: listed apart in the source
[7] = target: T3, mouse CD40 (mouse, UniProt P27512 20-289); assay: Alexa 647 labeled Ab102 on the surface of B cells
T3 construct: whole, on cells
T3 sequence (looked up): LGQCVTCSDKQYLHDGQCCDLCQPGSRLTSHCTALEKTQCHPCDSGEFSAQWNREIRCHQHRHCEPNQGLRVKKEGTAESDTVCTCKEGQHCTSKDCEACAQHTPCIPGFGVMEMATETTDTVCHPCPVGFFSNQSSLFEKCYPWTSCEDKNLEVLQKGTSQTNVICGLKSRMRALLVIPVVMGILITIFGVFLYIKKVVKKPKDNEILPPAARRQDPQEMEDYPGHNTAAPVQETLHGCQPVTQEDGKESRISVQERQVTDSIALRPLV

[8] = target: T4, rat CD40 (rat, UniProt A6JXD6 20-289); assay: Alexa 647 labeled Ab102 on the surface of B cells
T4 sequence: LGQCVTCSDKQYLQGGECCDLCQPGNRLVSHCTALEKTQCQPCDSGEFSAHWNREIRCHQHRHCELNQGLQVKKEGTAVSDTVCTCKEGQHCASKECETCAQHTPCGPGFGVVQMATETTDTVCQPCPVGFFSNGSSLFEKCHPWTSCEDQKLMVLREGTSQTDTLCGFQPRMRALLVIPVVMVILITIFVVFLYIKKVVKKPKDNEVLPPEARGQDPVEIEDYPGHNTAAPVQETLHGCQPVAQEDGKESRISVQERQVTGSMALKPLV

[9] = target: T2, cyno CD40; assay: Alexa 647 labeled Ab102 binding to CD40 on the surface of cynomolgus monkey B cells
Experimental: (§1) The cross-reactivity of Ab102 with CD40 from various species was tested. […] Binding of Ab102 to mouse, rat, and rabbit CD40 could not be detected at concentrations up to 30 μg/mL (200 nM).

[10] = target: T1, Human CD40; assay: Alexa 647 labeled Ab102 binding to CD40 on the surface of human B cells
Experimental: as §1

[11] = target: T1, Human CD40; assay: cell-based or functional assay; remark: listed apart in the source
[12] = target: T1, Human CD40; assay: cell-based or functional assay; remark: listed apart in the source
[13] = target: T2, cyno CD40; assay: FACS binding on HEK cells expressing cyCD40

T1 sequence (P25942 21-277 limits assumed): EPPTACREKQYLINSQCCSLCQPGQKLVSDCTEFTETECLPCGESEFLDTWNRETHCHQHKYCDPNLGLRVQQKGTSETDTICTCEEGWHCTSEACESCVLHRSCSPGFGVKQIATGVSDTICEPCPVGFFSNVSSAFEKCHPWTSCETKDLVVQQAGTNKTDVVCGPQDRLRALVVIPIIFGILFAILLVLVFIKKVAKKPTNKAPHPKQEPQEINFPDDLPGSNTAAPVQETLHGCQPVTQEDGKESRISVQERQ

Molecule: MEGACD40L (Enzo) (ligand)
production of TNF from monocytes, EC50 (agonist assay format) [1]: 1.9 nM

B3: chimeric Ab1 (chAb1) (antibody, V domains shown)
VH: EVQLVESGGGLVKPGGSLKVSCAASGFTFSDYGMNWVRQAPEKGLEWIAYISSGRSNIYYADTVKGRFTISRDNAKNTLFLQMTSLRSEDTAMYYCARSWGYFDVWGTGTTVTVSS
VL: DIVMTQSPSSLTVTAGEMVTMSCKSSQSLLNSGNQKNYLTWFQQKPGQPPKLLIYWASTRESGVPDRFAGSGSGTDFTLTISSVQAEDLAVYYCQNDYTYPLTFGAGTKLEIK
notes: Murine Ab1 variable regions on human constant regions; also called chimeric antibody (Antibody 1 (Ab1))
Antagonist: His-CD40L reporter assay IC50 [2]: 0.4 nM | Antagonist: Jurkat/Reporter assay IC50 [2]: 51 nM | IC50 [4]: 2.3 nM

B4: Ab102 (antibody, human IgG1, kappa, L234A L235A, V domains shown)
VH: B3 VH with K19R, V20L, E42G, S56G, T78S, F80Y, T84N, S88A, M93V, T108Q
VL: DIVMTQSPDSLAVSLGERATINCKSSQSLLNRGNQKNYLTWFQQKPGQPPKLLIYWASTRESGVPDRFSGSGSGTDFTLTISSLQAEDVAVYYCQNDYTYPLTFGQGTKLEIKR
notes: Humanized IgG1/kappa with L234A, L235A, T250Q, M428L (LALA-QL); also called VL huAbv1/VH huAb1v1CDR2v7/hCg1/k-LALA-QL; mAb CD40 Ab102 [hu IgG1/k]; LALA QL
Monocyte Activation Assay, Antagonist IC50 (nM), Experiment 1 [6]: 0.06 nM | Monocyte Activation Assay, Antagonist IC50 (nM), Experiment 2 [6]: 0.23 nM | Monocyte Activation Assay, Antagonist IC50 (nM), Experiment 3 [6]: 0.11 nM | binding result [7]: no binding (tested: 30 µg/mL (200 nM)) | binding result [8]: no binding (tested: 30 µg/mL (200 nM)) | EC50 [9]: 1.4 nM | EC50 [10]: 0.89 nM

B6: chimeric Ab2 (chAb2) (antibody, V domains shown)
VH: B3 VH with A40S, S56G
VL: B3 VL with M18K, A69T, I112L
binding result [13]: binds | Antagonist: His-CD40L reporter assay IC50 [2]: 0.3 nM | Antagonist: Jurkat/Reporter assay IC50 [2]: 3.4 nM | IC50 [4]: 1.4 nM

Results, then the molecule that gave them:

Antagonist: His-CD40L reporter assay IC50 [2]: 0.2 nM | Antagonist: Jurkat/Reporter assay IC50 [2]: 0.9 nM | binding result [3]: no binding | IC50 [4]: 1.4 nM
B1: chimeric Ab3 (chAb3) (antibody, V domains shown)
VH: QVQLQQSGAELARPGASVKMSCKAFGYTFTSYTMHWVKQRPGQGLEWIGYINPSSDYPNYNQKFKDKATLTADKSSSTAYMQLSSLTSEDSAVYYCARWGYSFDYWGQGTTLTVSS
VL: DIVMTQAAPSVSVIPGESVSISCRSSKSLLHSNGNTYLYWFLQRPGQSPQYLIYRMSTLASGVPDRFSGSGSGTAFTLRISRVEAEDVGVYYCMQHLEYPLTFGAGTKLELK
notes: also called chimeric Antibody 3

Antagonist: Jurkat/Reporter assay IC50 [5]: > 100 nM
B2: huAb1v5 (antibody, V domains shown)
VH: B3 VH with K19R, V20L, E42G, T78S, F80Y, T84N, S88A, M93V, T108Q
VL: DIVMTQSPDSLAVSLGERATINCKSSQSLLNTGNQKNYLTWFQQKPGQPPKLLIYWASTRESGVPDRFSGSGSGTDFTLTISSLQAEDVAVYYCQNDYTYPLTFGQGTKLEIK

Antagonist: Jurkat/Reporter assay (IC50 nM) [11]: 2.69 nM | antagonistic activity in comparison to antibody huAb1v1 [12]: 20 fold
B5: huAb1v1CDR2v7 (antibody, V domains shown)
VH: B3 VH with K19R, V20L, E42G, S56G, T78S, F80Y, T84N, S88A, M93V, T108Q
VL: B2 VL with T32R
